Source: patent US20230012273A1 (Boehringer Ingelheim, published 2023)
Substitutions are numbered along the chain they refer to. Read-outs that look alike come from different tables or passages of the source.

Tests used:
[1] = biological target: T1, human SIRPαV2 extracellular domain + His-tag (CAA71403.1) (human, UniProt P78324 31-373); assay: SPR, Ab captured, ECD-His analyte
T1 construct: also called hSIRPαV2; HuSIRPαV2
Summary of the method: (§1)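 SPR; Ab capture surface, ethanolamine-deactivated (1M, 420 s, 10 μl/min). Analyte: SIRP ECD+His, 2-fold dilution series in 1×HBS-EP+. Inject 300 s @ 30 μl/min; dissoc. 600 s.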

[2] = biological target: T2, human SIRPαV1 extracellular domain + His-tag (NP_542970.1) (human, UniProt P78324 31-373); assay: SPR, Ab captured, ECD-His analyte
T2 construct: also called hSIRPαV1; HuSIRPαV1
T2 sequence (P78324 other isoform, or with tags, fused parts or gaps): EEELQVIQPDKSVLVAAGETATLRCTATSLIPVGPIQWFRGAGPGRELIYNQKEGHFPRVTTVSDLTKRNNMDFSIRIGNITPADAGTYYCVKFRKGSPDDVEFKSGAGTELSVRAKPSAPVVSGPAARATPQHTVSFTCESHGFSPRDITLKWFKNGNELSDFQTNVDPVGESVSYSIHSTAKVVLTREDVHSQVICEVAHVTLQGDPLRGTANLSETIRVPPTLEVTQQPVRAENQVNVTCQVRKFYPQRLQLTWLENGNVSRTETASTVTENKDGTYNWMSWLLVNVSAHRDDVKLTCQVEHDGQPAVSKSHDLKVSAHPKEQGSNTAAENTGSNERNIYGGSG
Summary of the method: as §1

[3] = biological target: T3, human SIRPγ extracellular domain + His-tag (NP_061026.2) (human, UniProt Q9P1W8 29-360); assay: SPR, Ab captured, ECD-His analyte
T3 construct: also called hSIRPγ; HuSIRPγ
T3 sequence (Q9P1W8 29-360): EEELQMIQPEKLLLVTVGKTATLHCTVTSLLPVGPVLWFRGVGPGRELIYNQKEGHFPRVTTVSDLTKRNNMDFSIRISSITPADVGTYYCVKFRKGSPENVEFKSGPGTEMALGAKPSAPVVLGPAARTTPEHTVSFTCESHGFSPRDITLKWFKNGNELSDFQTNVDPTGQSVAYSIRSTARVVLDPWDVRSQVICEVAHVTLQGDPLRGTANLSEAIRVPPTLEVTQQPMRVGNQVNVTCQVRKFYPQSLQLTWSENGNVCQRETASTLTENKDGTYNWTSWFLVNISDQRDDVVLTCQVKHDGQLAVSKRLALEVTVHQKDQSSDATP
Summary of the method: as §1

[4] = biological target: T4, cynomolgus SIRPα extracellular domain + His-tag (NP_001271679) (cynomolgus monkey); assay: SPR, Ab captured, ECD-His analyte
T4 construct: also called CySIRPα NP_001271679; cynoSIRPα
T4 chain: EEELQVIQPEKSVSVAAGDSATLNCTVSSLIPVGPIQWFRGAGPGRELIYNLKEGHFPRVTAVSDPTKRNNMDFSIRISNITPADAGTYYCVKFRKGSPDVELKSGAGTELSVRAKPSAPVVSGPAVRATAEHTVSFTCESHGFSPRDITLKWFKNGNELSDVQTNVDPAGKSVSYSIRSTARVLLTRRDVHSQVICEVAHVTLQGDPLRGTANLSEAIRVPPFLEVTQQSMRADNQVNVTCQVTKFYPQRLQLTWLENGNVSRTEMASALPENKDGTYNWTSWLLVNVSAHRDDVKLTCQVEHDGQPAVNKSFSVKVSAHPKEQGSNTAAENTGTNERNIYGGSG
Method: (§2) The binding affinity of anti-SIRPα antibodies to the various SIRPα analytes is determined by surface plasmon resonance (SPR) using a ProteOn XPR36 (Bio-Rad). The running buffer for this experiment and all dilutions (except where stated) are done in 1×HBS-EP+. […] The sensorchip is deactivated with 1M ethanolamine HCl for 420 sec at a flowrate of 10 μl/min.
(§3) The analyte is injected over the captured antibody for 300 sec at a flowrate of 30 μl/min. The dissociation is done for 600 sec. Two-fold serial dilutions of each SIRP protein (Extracellular Domain+His-Tag) are injected as analyte with the highest concentrations indicated in table 36 below.

[5] = biological target: T5, mouse SIRPα extracellular domain + His-tag (NP_031573) (mouse, UniProt P97797 32-373); assay: SPR, Ab captured, ECD-His analyte
T5 chain: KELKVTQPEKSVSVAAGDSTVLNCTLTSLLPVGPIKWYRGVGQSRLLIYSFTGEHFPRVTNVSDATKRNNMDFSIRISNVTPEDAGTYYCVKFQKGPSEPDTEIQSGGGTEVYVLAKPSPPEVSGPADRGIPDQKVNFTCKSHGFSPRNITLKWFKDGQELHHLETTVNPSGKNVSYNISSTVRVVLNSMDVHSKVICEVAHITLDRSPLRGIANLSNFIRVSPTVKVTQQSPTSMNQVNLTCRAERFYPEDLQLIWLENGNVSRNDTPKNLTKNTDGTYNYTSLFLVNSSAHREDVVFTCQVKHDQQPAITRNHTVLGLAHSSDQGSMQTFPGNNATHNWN
Method: as §2, §3

[6] = biological target: T6, full-length human SIRPβL (NP_001129316.1) on cells (human, UniProt Q5TFQ8 30-398); assay: flow cytometry, U937 SIRPα KO cells
T6 construct: on U937 SIRPα KO cells and Expi-CHO cells; also called βL WT; SIRPβ1v3
T6 sequence (Q5TFQ8 30-398): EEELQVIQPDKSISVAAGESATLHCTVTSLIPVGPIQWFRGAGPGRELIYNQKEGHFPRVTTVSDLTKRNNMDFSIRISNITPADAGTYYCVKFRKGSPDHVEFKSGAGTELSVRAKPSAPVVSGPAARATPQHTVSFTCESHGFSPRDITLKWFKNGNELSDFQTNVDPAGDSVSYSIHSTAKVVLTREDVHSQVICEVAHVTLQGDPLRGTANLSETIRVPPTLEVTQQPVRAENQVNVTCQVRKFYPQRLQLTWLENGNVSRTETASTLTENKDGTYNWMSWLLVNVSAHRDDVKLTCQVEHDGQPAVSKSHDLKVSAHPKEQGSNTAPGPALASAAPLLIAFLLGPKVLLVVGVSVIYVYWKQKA
Method: Antibody binding to cells expressing full-length human SIRPβ1 (NP_006056.2) and SIRPβL (NP_001129316.1) is evaluated by flow cytometry. SIRPβ1- or SIRPβL-expressing U937^{SIRPα KO} cells are blocked with donkey IgG and incubated on ice with increasing concentrations of antibodies for 60 minutes, washed and stained with AF647-conjugated donkey F(ab′)₂ anti-human IgG secondary reagent. Cells are washed, fixed, and analyzed by flow cytometry. Median fluorescent intensity is determined and used as a measure of antibody binding.

[7] = biological target: T7, full-length human SIRPγ (NP_061026.2) on cells (human, UniProt Q9P1W8 29-387); assay: flow cytometry, primary human CD3+ T cells
T7 construct: on CHO and Expi-CHO cells; endogenous on primary human CD3+ T cells; also called γ WT
T7 sequence (Q9P1W8 29-387): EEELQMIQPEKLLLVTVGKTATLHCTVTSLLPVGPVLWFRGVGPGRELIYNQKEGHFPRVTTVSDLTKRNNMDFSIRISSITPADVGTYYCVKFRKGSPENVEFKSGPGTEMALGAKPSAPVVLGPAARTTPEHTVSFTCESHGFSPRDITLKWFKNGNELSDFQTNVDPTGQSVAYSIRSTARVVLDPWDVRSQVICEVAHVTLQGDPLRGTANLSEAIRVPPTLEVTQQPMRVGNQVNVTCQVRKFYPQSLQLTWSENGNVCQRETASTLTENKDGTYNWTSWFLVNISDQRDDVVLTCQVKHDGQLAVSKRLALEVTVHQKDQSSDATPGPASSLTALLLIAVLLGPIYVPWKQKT
Method: Antibody binding to primary human T cells expressing endogenous SIRPγ is evaluated by flow cytometry. Human peripheral blood mononuclear cells (PBMCs) are blocked with donkey IgG and incubated on ice with increasing concentrations of antibody for 60 minutes, washed and stained with AF647-conjugated donkey F(ab′)₂ anti-human IgG secondary reagent. […] Cells are washed, fixed, and analyzed by flow cytometry. Median fluorescent intensity of CD3+ gated population is determined and used as a measure of antibody binding.

[8] = biological target: T8, cynomolgus SIRPγ extracellular domain + His-tag (XP_005568591) (cynomolgus monkey, UniProt Q9P1W8 29-359 (human entry)); assay: SPR, Ab captured, ECD-His analyte
T8 construct: also called Cyno SIRPγ; cynoSIRPγ
T8 chain: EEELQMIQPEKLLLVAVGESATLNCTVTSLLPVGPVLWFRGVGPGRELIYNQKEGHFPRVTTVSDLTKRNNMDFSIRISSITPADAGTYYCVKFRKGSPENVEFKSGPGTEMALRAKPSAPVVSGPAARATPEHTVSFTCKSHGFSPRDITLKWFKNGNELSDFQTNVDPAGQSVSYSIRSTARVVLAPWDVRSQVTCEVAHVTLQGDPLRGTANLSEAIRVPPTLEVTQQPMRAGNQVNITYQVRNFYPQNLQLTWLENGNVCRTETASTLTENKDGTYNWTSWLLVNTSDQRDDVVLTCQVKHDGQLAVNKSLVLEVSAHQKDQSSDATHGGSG
Summary of the method: as §1

[9] = biological target: T9, cynomolgus SIRPβ1v3 extracellular domain + His-tag (XP_005568593) (cynomolgus monkey); assay: SPR, Ab captured, ECD-His analyte
T9 construct: also called Cyno SIRPβ1v3; cynoSIRPβ1v3
T9 chain: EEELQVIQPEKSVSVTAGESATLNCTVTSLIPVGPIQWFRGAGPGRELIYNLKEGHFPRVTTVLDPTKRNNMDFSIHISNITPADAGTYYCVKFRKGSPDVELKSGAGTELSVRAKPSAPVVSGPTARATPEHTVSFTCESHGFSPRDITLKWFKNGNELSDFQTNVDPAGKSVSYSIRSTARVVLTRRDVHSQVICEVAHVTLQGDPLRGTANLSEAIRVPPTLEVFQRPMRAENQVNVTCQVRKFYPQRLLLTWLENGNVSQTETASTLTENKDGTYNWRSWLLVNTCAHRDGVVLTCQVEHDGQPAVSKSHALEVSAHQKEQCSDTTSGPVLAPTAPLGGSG
Summary of the method: as §1

[10] = biological target: T10, cynomolgus SIRPα extracellular domain + His-tag (XP_015313155) (cynomolgus monkey); assay: SPR, Ab captured, ECD-His analyte
T10 construct: also called CySIRPα XP_015313155; cynoSIRPα
T10 chain: T4 chain with A62P, V163F, L185V
Summary of the method: as §1

[11] = biological target: T11, cynomolgus SIRPα extracellular domain + His-tag (EGM_02252) (cynomolgus monkey); assay: SPR, Ab captured, ECD-His analyte
T11 construct: also called CySIRPα EGM_02252; cynoSIRPα
T11 chain: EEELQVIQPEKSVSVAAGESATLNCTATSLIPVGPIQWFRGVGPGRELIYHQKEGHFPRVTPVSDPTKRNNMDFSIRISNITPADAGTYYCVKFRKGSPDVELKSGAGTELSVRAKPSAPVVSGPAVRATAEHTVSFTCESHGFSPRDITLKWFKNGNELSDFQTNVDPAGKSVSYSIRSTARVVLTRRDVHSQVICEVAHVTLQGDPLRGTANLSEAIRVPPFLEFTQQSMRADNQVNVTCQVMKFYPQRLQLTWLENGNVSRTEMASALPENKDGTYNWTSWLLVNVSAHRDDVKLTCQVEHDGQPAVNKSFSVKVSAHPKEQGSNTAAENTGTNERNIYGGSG
Summary of the method: as §1

[12] = biological target: full-length human SIRPβ1 D→H on Expi-CHO cells (human, UniProt O00241 30-398); assay: flow cytometry, Expi-CHO cells
Sequence of full-length human SIRPβ1 D→H on Expi-CHO cells (O00241 30-398 D130H): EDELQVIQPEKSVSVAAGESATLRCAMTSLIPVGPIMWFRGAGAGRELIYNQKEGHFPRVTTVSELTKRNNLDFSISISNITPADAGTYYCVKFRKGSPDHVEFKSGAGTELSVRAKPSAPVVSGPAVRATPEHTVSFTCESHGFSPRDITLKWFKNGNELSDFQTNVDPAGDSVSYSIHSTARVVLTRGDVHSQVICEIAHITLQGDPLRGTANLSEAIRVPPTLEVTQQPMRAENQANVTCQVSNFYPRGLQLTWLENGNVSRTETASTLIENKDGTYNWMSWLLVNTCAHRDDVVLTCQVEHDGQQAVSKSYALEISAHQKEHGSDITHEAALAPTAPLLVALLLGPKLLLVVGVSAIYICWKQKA
Method: These cells are blocked with donkey IgG and incubated on ice with increasing concentrations of antibodies for 60 minutes, washed and stained with AF647-conjugated donkey F(ab′)₂ anti-human IgG antibodies. Stained cells are washed, fixed, and analyzed by flow cytometry. Median fluorescent intensity is determined and used as a measure of antibody binding.

[13] = biological target: T12, human SIRPβ1 extracellular domain + His-tag (NP_006056.2) (human, UniProt O00241 30-371); assay: SPR, Ab captured, ECD-His analyte
T12 construct: also called hSIRPβ1; HuSIRPβ1
T12 sequence (O00241 other isoform, or with tags, fused parts or gaps): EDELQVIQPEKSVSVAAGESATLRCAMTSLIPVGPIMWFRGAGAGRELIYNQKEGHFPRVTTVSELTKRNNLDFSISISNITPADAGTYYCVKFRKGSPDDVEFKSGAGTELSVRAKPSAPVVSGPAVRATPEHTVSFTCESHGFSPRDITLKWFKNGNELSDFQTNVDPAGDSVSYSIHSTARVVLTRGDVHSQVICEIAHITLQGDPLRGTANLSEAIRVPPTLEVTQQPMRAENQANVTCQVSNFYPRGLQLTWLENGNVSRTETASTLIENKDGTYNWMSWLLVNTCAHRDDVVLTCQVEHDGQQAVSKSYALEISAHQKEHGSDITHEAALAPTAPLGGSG
Summary of the method: as §1

[14] = biological target: T13, human SIRPβL/SIRPβ1v3 extracellular domain + His-tag (NP_001129316.1) (human, UniProt Q5TFQ8 30-371); assay: SPR, Ab captured, ECD-His analyte
T13 construct: also called hSIRPβ1v3; HuSIRPβ1v3
T13 sequence (Q5TFQ8 other isoform, or with tags, fused parts or gaps): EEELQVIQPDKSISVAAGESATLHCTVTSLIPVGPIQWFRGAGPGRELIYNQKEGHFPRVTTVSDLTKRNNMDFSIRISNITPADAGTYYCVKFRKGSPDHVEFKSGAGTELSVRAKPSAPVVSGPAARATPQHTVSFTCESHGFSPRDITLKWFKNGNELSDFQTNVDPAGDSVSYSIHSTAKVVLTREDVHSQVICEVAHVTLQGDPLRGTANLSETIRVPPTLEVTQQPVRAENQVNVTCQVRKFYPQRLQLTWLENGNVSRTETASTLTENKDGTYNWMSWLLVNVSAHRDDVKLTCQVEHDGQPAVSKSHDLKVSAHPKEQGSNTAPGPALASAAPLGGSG
Summary of the method: as §1

[15] = biological target: T3, human SIRPγ extracellular domain + …; assay: SPR, Ab captured, ECD-His analyte; remark: listed apart in the source
Summary of the method: as §1

[16] = biological target: T12, human SIRPβ1 extracellular domain + …; assay: SPR, Ab captured, ECD-His analyte; remark: listed apart in the source
Summary of the method: as §1

T1 sequence (P78324 other isoform, or with tags, fused parts or gaps): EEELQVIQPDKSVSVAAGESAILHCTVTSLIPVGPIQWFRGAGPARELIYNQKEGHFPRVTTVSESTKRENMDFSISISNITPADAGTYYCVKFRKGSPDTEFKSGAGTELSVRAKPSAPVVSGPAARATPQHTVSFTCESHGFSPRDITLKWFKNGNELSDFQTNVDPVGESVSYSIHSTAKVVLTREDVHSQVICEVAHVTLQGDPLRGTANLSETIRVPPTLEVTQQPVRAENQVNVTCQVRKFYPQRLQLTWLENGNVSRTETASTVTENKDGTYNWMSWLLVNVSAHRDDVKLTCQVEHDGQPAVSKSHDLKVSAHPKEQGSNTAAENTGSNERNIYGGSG

B1: Antibody B (antibody, human IgG1, kappa, L234A L235A, V domains shown)
VH: QVQLVQSGAEVKKPGASVKVSCKASGYTFTGNYMHWVRQAPGQGLEWMGWINPNSGGTNYAQKFQGRVTMTRDTSISTAYMELSRLRSDDTAVYYCVSGSGWYENYYYYGMDVWGQGTTVTVSS
VL: DIQMTQSPSSVSASVGDRVTITCRASQGISSWLAWYQQKPGKAPKLLIYAESSLQSGVPSRFSGSGSGTDFTLTISSLQPEDFATYYCQQANSFPLTFGGGTKVEIKR
Kd [1]: 71.5 nM | Kd [2]: 17.4 nM | binding result [3]: no binding (tested: 1000 nM) | binding result [4]: no binding (tested: 1000 nM) | binding result [5]: no binding

B2: Antibody A11 (antibody, human IgG4 S228P, kappa)
heavy: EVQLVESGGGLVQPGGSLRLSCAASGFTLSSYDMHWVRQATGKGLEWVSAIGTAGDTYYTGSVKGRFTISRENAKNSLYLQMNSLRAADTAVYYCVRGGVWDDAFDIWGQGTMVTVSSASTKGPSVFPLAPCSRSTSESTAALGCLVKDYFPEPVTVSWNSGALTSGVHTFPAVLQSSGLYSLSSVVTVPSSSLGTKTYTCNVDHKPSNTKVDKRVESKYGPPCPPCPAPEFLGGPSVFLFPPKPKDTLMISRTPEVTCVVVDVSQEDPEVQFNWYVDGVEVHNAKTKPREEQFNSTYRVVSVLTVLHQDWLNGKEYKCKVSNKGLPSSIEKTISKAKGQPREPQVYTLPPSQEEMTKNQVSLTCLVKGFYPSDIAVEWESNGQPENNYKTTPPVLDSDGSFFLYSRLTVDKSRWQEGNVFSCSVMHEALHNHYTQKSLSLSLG
light: DIQMTQSPSSLSASVGDRVTITCRASQDINNYLAWFQQKPGKAPKSLIYTASSLHSGVPSKFSGSGSGTDFTLTISSLQPEDFATYYCQQYVSYPYTFGQGTKLEIKRTVAAPSVFIFPPSDEQLKSGTASVVCLLNNFYPREAKVQWKVDNALQSGNSQESVTEQDSKDSTYSLSSTLTLSKADYEKHKVYACEVTHQGLSSPVTKSFNRGEC
binding result [6]: no binding | binding result [7]: no binding

B3: Antibody A4 (antibody, human IgG1, kappa, L234A L235A, V domains shown)
VH: EVQLVESGGGLVQPGGSLRLSCAASGFTLSSYDMHWVRQAPGKGLEWVSAIGTAGDTYYTGSVKGRFTISRENAKNSLYLQMNSLRAADTAVYYCVRGGVWDDAFDIWGQGTMVTVSS
VL: DIQMTQSPSSLSASVGDRVTITCRASQGINNYAAWFQQKPGKAPKSLIYTASSLHSGVPSKFSGSGSGTDFTLTISSLQPEDFATYYCQQYVSYPYTFGQGTKLEIKR
binding result [6]: no binding | binding result [7]: no binding | binding result [8]: no binding (tested: 1000 nM) | Kd [9]: 460 nM | Kd [10]: 374 nM | Kd [11]: 508 nM | binding result [12]: no binding | Kd [13]: 67.2 nM | binding result [14]: no binding (tested: 100 nM) | binding result [15]: no binding (tested: 1000 nM)

B4: Antibody D (antibody, human IgG1, kappa, L234A L235A, V domains shown)
VH: EVQLVESGGGLVQPGGSLRLSCAASGFTFSSFDMHWVRQPTGKGLEWVSTIGIAGDTYFPGSVKGRFTISRENAKNSLYLQMNSLRAGDTAVYYCARGGNWDDALDIWGQGTMVTVSS
VL: B3 VL with G28D, A33L, H55Q, V92N, S93T
Kd [1]: 4.05 nM | Kd [2]: 4.04 nM | Kd [16]: 16.5 nM | binding result [12]: no binding | binding result [4]: no binding (tested: 1000 nM) | binding result [5]: no binding
